Laboratory results: the supplement of paper PMC10567573
± gives the standard deviation.

Experiment: protein stability index of a GFP-peptide fusion (GPS, HEK-293T) (PSI 1-6); higher = more stable
[1] = treatment: DMSO, c terminus: a fixed tail appended
[2] = treatment: MLN4924 1 uM, 8 h, c terminus: a fixed tail appended
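Note: 24-mer peptide tiles fused after GFP, lentivirally expressed, FACS-sorted into six equal bins by GFP/DsRed ratio, decoded by Illumina sequencing, PSI is the read-weighted mean bin number.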

Row | Sequence | protein stability index [1] | protein stability index [2] | protein stability index (treatment: DMSO, c terminus: native) | protein stability index (treatment: MLN4924 1 uM, 8 h, c terminus: native)
1 | AVTDLLGRRQRKSEKRRDPPNGPN [WASL] | 4.06 ± 0.14 | 4.31 ± 0.29 | – | –
2 | PHKGLNLHPLLSGRLGRWLRSTRF [PCDHGC5] | 2.35 ± 0.23 | 2.13 ± 0.28 | – | –
3 | LSFYNVTDRSHIYTFTDTFTEKLW [TRIM39] | 2.52 ± 0.31 | 2.3 ± 0.32 | – | –
4 | TESEIESETDFETEPETAPTTEPE [GNAS] | 5.66 ± 0.2 | 5.68 ± 0.27 | – | –
5 | PKTVPSHVFSELWDLSEAWMQANY [ELOA2] | 2.6 ± 0.26 | 2.56 ± 0.41 | – | –
6 | KENQDIRLLQAQLQAQKEELQSLM [PBXIP1] | 4.05 ± 0.12 | 4.14 ± 0.22 | – | –
7 | DQLAFIEELFSLMVVNRLTEELGC [EID1] | 3.01 ± 1.2 | 3.21 ± 0.51 | – | –
8 | ATITSRGSSLSGSLCSLLESQSTS [LURAP1L] | 3.49 ± 0.28 | 3.6 ± 0.32 | – | –
9 | ALCLEVRPTYFEMKNEKLLSKASE [RNF180] | 3.51 ± 0.21 | 3.67 ± 0.4 | – | –
10 | ELQGLPELHEECEGNHPSARKLTA [NET1] | 4.87 ± 0.21 | 4.56 ± 0.41 | – | –
11 | RGEGIQAPSFSSYLYFLFCPTLIY [SOAT2] | 3.49 ± 0.45 | 3.36 ± 0.69 | – | –
12 | GAFGIVHLCLRKADQKLVIIKQIP [NEK8] | 2.55 ± 0.48 | 2.3 ± 0.33 | – | –
13 | ISDNPERYSTNLSNHVDDFTTFRG [EDNRA] | 3.87 ± 0.34 | 3.95 ± 0.42 | – | –
14 | PGKLFIGGLNTETNEKALEAVFGK [RBMX] | 3.54 ± 0.35 | 3.69 ± 0.38 | – | –
15 | GDFEEAFDHLQNRLIATKNPEEIR [TENT5C] | 5.16 ± 0.17 | 5.19 ± 0.21 | – | –
16 | NGFPDSTGDPLPEISKDNSCKENC [EDARADD] | 5.2 ± 0.24 | 5.17 ± 0.48 | – | –
17 | EIRKKVLKIYNKREEDFPSLREYN [MNAT1] | 2.45 ± 0.43 | 2.64 ± 0.51 | – | –
18 | APMDAPRYQHGIAVIGNFLYVVGG [KLHL13] | 2.18 ± 0.36 | 2.25 ± 0.25 | – | –
19 | VPIPTVNQYLYFLFAPTLIYRDSY [SOAT1] | 3.32 ± 0.3 | 3.24 ± 0.24 | – | –
20 | PSDFFIGAVIEVFGHRFIILDTDE [EFHC1] | 2.32 ± 0.43 | 2.31 ± 0.36 | – | –
21 | DRLNEQEGVPSVFNPPPSRPLQVN [FAF2] | 4.23 ± 0.28 | 4.25 ± 0.1 | – | –
22 | PDQVAPFTFLQPLPLSPGVLSSTP [ATF4] | 3.44 ± 0.33 | 3.74 ± 0.19 | – | –
23 | MAEAAALVWIRGPGFGCKAVRCAS [SDE2] | 2.45 ± 0.47 | 2.35 ± 0.53 | – | –

Row | Sequence | protein stability index [1] | protein stability index [2] | protein stability index (treatment: DMSO, c terminus: native) | protein stability index (treatment: MLN4924 1 uM, 8 h, c terminus: native)
24 | RALQERLGQQQRDMRRDEEGSLCA [FBF1] | 4.95 ± 0.36 | 5.03 ± 0.32 | – | –
25 | GPWQLNVFVCRVSAVLFYVNMYVS [P2RY14] | 2.77 ± 0.36 | 2.72 ± 0.79 | – | –
26 | MLDSALRFQAMEETHLRHMKALLG [FCHO1] | 2.23 ± 0.37 | 2.33 ± 0.25 | – | –
27 | KVQDALQNQSDSLLALAGAVQRLE [SCARA5] | 3.16 ± 0.24 | 3.29 ± 0.33 | – | –
28 | GEGLNVIQQTTRYFSTPQTMDLFL [NANOGP8] | 2.09 ± 0.34 | 2.32 ± 0.057 | – | –
29 | LRALKLVITALKCHKYDRNIQVTG [ZER1] | 3.14 ± 0.42 | 3.16 ± 0.65 | – | –
30 | LCSDLEEAPEAELSQAPAEGPDLV [HES6] | 5.61 ± 0.12 | 5.57 ± 0.3 | – | –
31 | VTLLVRGVCYSESQSSASQPRLSY [CLCN6] | 2.83 ± 0.41 | 2.29 ± 0.6 | – | –
32 | RALQEEERAAAQARRELQAEREAL [ZBED3] | 5.36 ± 0.19 | 5.45 ± 0.18 | – | –
33 | WLHCVCVVGFDLELGQAVEVIYPQ [DENND6A] | 2.66 ± 0.95 | 2.46 ± 0.085 | – | –
34 | WKVRYDTFIVSCKFSPDGKYVVSG [WDR88] | 2.31 ± 0.45 | 2.49 ± 0.14 | – | –
35 | PCHPTVKNWRNFASKWGMSYDELC [EDARADD] | 2.64 ± 0.28 | 2.54 ± 0.38 | – | –
36 | WIGKQLPTPVGAVQQDPALSSNRE [CSNK1G3] | 4.11 ± 0.19 | 4.48 ± 0.26 | – | –
37 | DETLYQEFNGLKKMNPKLKTLLAI [CHIT1] | 2.3 ± 0.17 | 2.52 ± 0.47 | – | –
38 | NKQTLSSGEKYDPDANTWTALPPM [GAN] | 4.07 ± 0.39 | 4.03 ± 0.1 | – | –
39 | LSRLSVNSVTAGDYSRPLHISTFI [TSN] | 2.42 ± 0.61 | 2.31 ± 0.24 | – | –
40 | AGFDAARGDPLGGCQVSPEGYAHL [HDAC6] | 3.75 ± 0.26 | 3.78 ± 0.2 | – | –
41 | DEPGKGGFWRIDPQYAERLLSGAF [FOXJ1] | 2.6 ± 0.25 | 2.73 ± 0.34 | – | –
42 | MRVDLRAGDEAVFAQYDSFHVDSA [TNXB] | 3.34 ± 0.56 | 3.22 ± 0.37 | – | –
43 | TPQHHEKQYAMQRPNDDSLAFLDK [IQUB] | 4.53 ± 0.23 | 4.58 ± 0.17 | – | –
44 | EDSAESRPWRAGVLAEGDNASRSL [PSD2] | 5.21 ± 0.18 | 5.14 ± 0.084 | – | –
45 | PGGLTLEEHSLEQVQSMVVGEVLK [SPDEF] | 3.34 ± 0.28 | 3.53 ± 0.38 | – | –
46 | AEEWYKSKYADLSDAANRNHEALR [PRPH] | 4.27 ± 0.21 | 4.43 ± 0.35 | – | –

Row | Sequence | protein stability index [1] | protein stability index [2] | protein stability index (treatment: DMSO, c terminus: native) | protein stability index (treatment: MLN4924 1 uM, 8 h, c terminus: native)
47 | QAVSAPGILNRPPAPTATVPAPQP [ZNF207] | 4.76 ± 0.17 | 4.91 ± 0.17 | – | –
48 | IKLIDFGIAHKIEAGNEFKNIFGT [DAPK3] | 2.47 ± 0.31 | 2.32 ± 0.21 | – | –
49 | EKIDKLEQDMERRKADFKAGKALV [ZC3H15] | 4.74 ± 0.3 | 4.67 ± 0.23 | – | –
50 | SQEREGLLIVKLEEDCAWSQELPP [ZNF263] | 3.72 ± 0.068 | 3.89 ± 0.18 | – | –
51 | FGLTYRDAENQKNWLDPAKEIKKQ [EPB41L3] | 3.68 ± 0.082 | 4.15 ± 0.089 | – | –
52 | KLEISTKEVPVVHTETKTITYESS [EPB41L3] | 4.83 ± 0.14 | 4.64 ± 1 | – | –
53 | NLINQMLTINPAKRITAHEALKHP [CAMK2B] | 2.38 ± 0.32 | 2.23 ± 0.12 | – | –
54 | ETEARYSSQLAQMQCLISNVEAQL [KRT36] | 3.26 ± 0.31 | 3.2 ± 0.34 | – | –
55 | EELERRFEDEVKRLGWQQQAELQE [MTUS2] | 5.01 ± 0.51 | 5.24 ± 0.35 | – | –
56 | IKIRPGEFEQFESTIGFKLPNHRA [EPB41L3] | 2.64 ± 0.03 | 2.75 ± 0.63 | – | –
57 | YVYKPVMNQTCCPQYTIRCRPLQF [ATE1] | 2.65 ± 0.64 | 2.3 ± 0.33 | – | –
58 | EPQWFYEETESSDDVEVLTLKKFK [C8orf76] | 4.66 ± 0.094 | 4.74 ± 0.15 | – | –
59 | QFSDEVEPATPEEGEPATQRQDPA [GAGE1] | 5.6 ± 0.11 | 5.57 ± 0.096 | – | –
60 | KQTQCPADPLQLNKALSIILHLIC [FEM1C] | 1.91 ± 0.17 | 2.21 ± 0.39 | – | –
61 | EAAFHPIEEYMVHVEEHFQLLARR [FUT8] | 3.06 ± 0.29 | 3.34 ± 0.36 | – | –
62 | GCLLPDGSRMMAVAALVVNFSQPV [NLN] | 3.04 ± 0.46 | 2.75 ± 0.81 | – | –
63 | GKEPLDPDPSHSPSDKVGRADAHL [TOR1AIP2] | 5.07 ± 0.17 | 5.32 ± 0.057 | – | –
64 | ADWLGLKDEDLDLFPASPTREAHR [FBF1] | 4.77 ± 0.21 | 4.61 ± 0.12 | – | –
65 | KHFLEAIENNKYGWFWVCPGGGDI [ZC3H15] | 2.8 ± 0.4 | 2.43 ± 0.39 | – | –
66 | VVGAKKIYAHRVILSACSPYFRAM [KLHL20] | 2.78 ± 0.26 | 2.41 ± 0.84 | – | –
67 | CRRCYDWIHRPGCRCKNSNTVYCK [SPRY1] | 2.82 ± 0.089 | 3.05 ± 0.13 | – | –
68 | ELPTRIHEEVYFEPSSSKDSDENS [MIA2] | 5.34 ± 0.14 | 4.79 ± 0.58 | – | –
69 | PSKTYPAFLEPDETFIVPDSFLVA [SPSB1] | 2.39 ± 0.33 | 2.45 ± 0.15 | – | –

Row | Sequence | protein stability index [1] | protein stability index [2] | protein stability index (treatment: DMSO, c terminus: native) | protein stability index (treatment: MLN4924 1 uM, 8 h, c terminus: native)
70 | EPGPAGPPPPPSPSSLGPLLPLQR [BTBD1] | 4.75 ± 0.24 | 4.76 ± 0.52 | – | –
71 | PDNWFCYPCIPNHELVWAKMKGFG [ZMYND11] | 2.43 ± 0.37 | 2.12 ± 0.18 | – | –
72 | IARDQTKSIVEKIQAKLPGIAKKK [RTN3] | 3.8 ± 0.15 | 3.75 ± 0.32 | – | –
73 | GRVEVLKNGEWGTVCDDKWDLVSA [LOXL2] | 4.2 ± 0.32 | 3.56 ± 0.64 | – | –
74 | YLSKTYCVDATRETNRLGRLINHS [KMT5A] | 2.35 ± 0.046 | 2.62 ± 0.25 | – | –
75 | EELPCTCPLCTSDRGSCVSTTEGI [RHOBTB3] | 4.53 ± 0.22 | 4.62 ± 0.27 | – | –
76 | VDISVPPTTDGQKPNKLQCCQNL [RAB11B] | – | – | 4.77 ± 0.31 | 4.93 ± 0.091
77 | KPFVSVFRHLRLQYIISDLASARI [GMCL1] | 3.07 ± 0.69 | 2.78 ± 0.85 | – | –
78 | MSKQRERQLRRRALHPERAMDNHS [RETREG3] | 4.31 ± 0.17 | 4.44 ± 0.088 | – | –
79 | EKSQLIMQAEAEAASVRMRGEAEA [FLOT1] | 5.04 ± 0.12 | 4.7 ± 0.26 | – | –
80 | NRSDHGIFHSRTSLQKLSTKLSAQ [FCHSD1] | 3.43 ± 0.25 | 3.67 ± 0.36 | – | –
81 | TKILQERAVLGANDPEKNFLTTAI [NSDHL] | 3.53 ± 0.14 | 3.38 ± 0.13 | – | –
82 | PILKVQYHPRDQNKVLVCPMKSAP [RBBP5] | 2.99 ± 0.17 | 3.13 ± 0.14 | – | –
83 | LTVYAWERGSMKTHFNTAQGFRTV [OAS1] | 2.72 ± 0.57 | 2.52 ± 0.21 | – | –
84 | DFPAHRIVLAACSDYFCAMFTSEL [KLHL12] | 3.08 ± 0.41 | 3.27 ± 0.51 | – | –
85 | RVFKARIYTNRYETNEEDKTLQEI [FBXO39] | 2.98 ± 0.34 | 3.43 ± 0.38 | – | –
86 | LSWYRGRRPRTAFTQNQIEVLENV [HESX1] | 3.03 ± 0.094 | 3 ± 0.28 | – | –
87 | AVVALTQDQPSEAATGGATLAQTI [HDAC6] | 4.27 ± 0.33 | 4.38 ± 0.24 | – | –
88 | QPKKNNVMARTRLVVPNKGYSSLD [FAM219A] | 3.85 ± 0.3 | 4.07 ± 0.27 | – | –
89 | ELSEVLENQSSQAELKEAVEEPSS [CHGA] | 5.78 ± 0.21 | 5.67 ± 0.34 | – | –
